Consider one molecule from US20250376498A1, “FUSION PROTEINS COMPRISING AN IMPROVED GLP-1 RECEPTOR AGONIST AND USES THEREOF” (Guangzhou Innogen Pharmaceutical Group Co., Ltd., priority 2022, published 2025).

Entries after “also recorded” stand apart in the source; their conditions may differ.

This series concerns T2DM subjects. Briefly: Phase IIa clinical trial, efficacy and safety in T2DM subjects. It counts as in vivo, human. Here is the method: Key inclusion criteria for the phase IIa study: • Patients with T2DM (WHO 1999) who have not taken metformin for at least 1 week and have not taken any other oral antidiabetic drugs for at least 2 weeks. • HbA1c levels at screening: 7.0%≤HbA1c≤10.0%. • Age between 18 and 65 years at screening. • BMI ≥20 kg/m^2 and ≤40 kg/m^2.
Key exclusion criteria for the phase IIa study: • Type 1 diabetes. • Fasting C-peptide <0.81 ng/mL. • Laboratory parameters meeting one of the following criteria: alanine aminotransferase (ALT) levels ≥2.5 ×ULN, and/or aspartate aminotransferase (AST) levels ≥2.5 ×ULN, fasting triglycerides >5.6 mmol/L; estimated glomerular filtration rate (eGFR) calculated by the CKD-EPI (EPI-(Scr)) equation <45 mL/min/1.73 m^2, • Known susceptibility to familial (first-degree relatives) or personal history of type 2 multiple endocrine neoplasia or medullary thyroid carcinoma. • Uncontrolled hypertension. • Known history of pancreatitis, pancreatic cancer, or serum amylase >1.2 ×ULN, or high-risk factors for pancreatitis at screening. • Patients with uncontrolled hypothyroidism. • Suspicion of active infection. • Positive hepatitis B surface antigen (HBsAg), hepatitis C antibody (HCV-Ab), human immunodeficiency virus antibody (HIV-Ab), or Treponema pallidum antibody (TPAb). • Treatment with GLP-1 receptor agonists, DPP-4 inhibitors, or insulin in the 3 months prior to randomization. • History of grade 3-4 allergy to any protein drug as per CTCAE. • Blood donation or blood loss exceeding 450 mL in the 3 months prior to screening. • Any significant endocrine, immune, coagulation, urinary reproductive tract abnormality, or hematological disease. • Clinically significant gastric emptying disorder (e.g., gastric outlet obstruction), severe chronic gastrointestinal disease (e.g., active ulcer within 6 months), long-term use of drugs directly affecting gastrointestinal motility, or previous gastrointestinal surgery. • Any other condition that the investigator or primary physician deems unsuitable for participation in the study. […]

B1: YN-011: GLP-1 fusion protein of SEQ ID NO: 7: GLP-1 (A8G, G22E, R36G), linker peptide and IgG2/Fc domain (C222S, A330S, P331S) (protein)
chain: HGEGTFTSDVSSYLEEQAAKEFIAWLVKGGGSSGAPPPSGGGGSERKSCVECPPCPAPPVAGPSVFLFPPKPKDTLMISRTPEVTCVVVDVSHEDPEVQFNWYVDGVEVHNAKTKPREEQFNSTFRVVSVLTVVHQDWLNGKEYKCKVSNKGLPSSIEKTISKTKGQPREPQVYTLPPSREEMTKNQVSLTCLVKGFYPSDIAVEWESNGQPENNYKTTPPMLDSDGSFFLYSKLTVDKSRWQQGNVFSCSVMHEALHNHYTQKSLSLSPG
For B1, the “side effects or safety risks” value (1-4 mg sc) is reported as “No significant side effects or safety risks”. The “HbA1c levels compared to placebo” value (multiple sc administrations, 1 mg, 3 mg or 4 mg, p<0.05) was “persistent improvement; also recorded: significant difference compared to the placebo”. In addition, the “fasting blood glucose compared to placebo” value (multiple sc administrations, 3 mg or 4 mg, p<0.05) is on record as “statistically significant improvement; also recorded: significant difference compared to the placebo”.
